Consider one molecule from US20230241185A1, “COMPOSITION COMPRISING A DNA-DEGRADING ENZYME FOR USE IN A METHOD FOR THE TREATMENT OF IMMUNOSUPPRESSION AFTER ACUTE TISSUE INJURY” (Klinikum der Universität München, priority 2020, published 2023).

“Also recorded” adds a separate entry of the source.

Assay [1] has as its system splenic CD3^+ T cells. As to the kind of experiment: Splenic T cell counts by FACS after experimental stroke. In kind it is in vivo, mice. To be noted: hrDNase 1000 U 1 hour after surgery vs vehicle; experimental stroke; normalized to sham. An excerpt: (§1) Mice were anaesthetized with isoflurane delivered in a mixture of 30% O2 and 70% N2O. An incision was made between the ear and the eye in order to expose the temporal bone. Mice were placed in supine position, and a laser Doppler probe was affixed to the skull above the middle cerebral artery (MCA) territory. The common carotid artery and left external carotid artery were exposed via midline incision and further isolated and ligated. A 2-mm silicon-coated filament (Doccol) was inserted into the internal carotid artery, advanced gently to the MCA until resistance was felt, and occlusion was confirmed by a corresponding decrease in blood flow (i.e., a decrease in the laser Doppler flow signal by 80%. After 60 minutes of occlusion, the animals were re-anesthetized, and the filament was removed. After recovery, the mice were kept in their home cage with ad libitum access to water and food. Sham-operated mice received the same surgical procedure, but the filament was […] in lieu of being advanced to the MCA. Body temperature was maintained at 37° C. throughout surgery in all mice via feedback-controlled heating pad. The overall mortality rate of animals subjected to MCA occlusion was approximately 20%. All animals in the sham group survived the procedure. Exclusion criteria: 1. Insufficient MCA occlusion (a reduction in blood flow to […] of the baseline value). 2. Death during the surgery. 3. Lack of brain ischemia as quantified post-mortem by histological analysis.
Anti-IL1β: Mice received two injections of antagonizing anti-IL-1β in sterile saline (clone: B122, InVivoMab, BioXcell, US), 1 hour prior to and 1 hour after surgery. Anti-IL-1β or the corresponding IgG control (Armenian hamster IgG, InVivoMab, BioXcell, US) was injected i.p. at a dose of 4 mg kg^−1 body weight in a final volume of 200 μl.
Anti-FasL: Mice received two injections of antagonizing anti-FasL in sterile saline (clone: MFL3, InVivoMab, BioXcell, US), 1 hour prior to and 1 hour after surgery. […]
(A flow cytometer gives signals particle by particle.)

For assay [2], the system named is splenic B cells. As to the kind of experiment: Splenic B cell counts by FACS after experimental stroke. The assay is classed as in vivo, mice. The following applies: hrDNase 1000 U vs control; 18 h after stroke; normalized to sham. An excerpt: (§2) Mice were anaesthetized with isoflurane delivered in a mixture of 30% O2 and 70% N2O. An incision was made between the ear and the eye in order to expose the temporal bone. Mice were placed in supine position, and a laser Doppler probe was affixed to the skull above the middle cerebral artery (MCA) territory. The common carotid artery and left external carotid artery were exposed via midline incision and further isolated and ligated. […] Lack of brain ischemia as quantified post-mortem by histological analysis. […]
(§3) The anti-mouse antibodies listed below (see Table 1) were used for surface marker staining of CD45^+ leukocytes, CD45^+CD11b^+ monocytes (+FasL^+ expression), CD3^+ T cells, CD3^+CD4^+ Thelper cells, CD3^+CD8^+ Tcytotox cells and CD19^+ B cells (for representative gating strategy, see FIG. 10A). […] Flow cytometric data was acquired using a BD FACSverse flow cytometer (BD Biosciences) and analyzed using FlowJo software (Treestar).

Assay [3] concerns caspase-1 activity in splenic CD11b^+ monocytes. As to the kind of experiment: FAM FLICA flow cytometry of caspase-1 activity (inflammasome activation) in splenic monocytes after stroke. The assay is classed as in vivo, mice. To be noted: hrDNase 1000 U 1 hour after surgery vs vehicle; experimental stroke; splenic monocytes.
Text: as §1
Human recombinant DNase (hrDNase): 1000 U of human recombinant DNase (Roche, Switzerland) dissolved in incubation 1× buffer (40 mM Tris-HCl, 10 mM NaCl, 6 mM MgCl2, 1 mM CaCl2, pH 7.9, diluted in PBS, Roche) was injected i.v. in the tail vein 1 hour after surgery in a final volume of 100 μl. The control group was administered vehicle injections at the same volume, route, and timing as experimental animals.
Caspase-8 inhibitor (Z-IETD-FMK) & Caspase-9 inhibitor (Z-LEHD-FMK): The apoptosis inhibitors Z-IETD-FMK and Z-LEHD-FMK (R&D systems, US) in DMSO dissolved in PBS and injected i.p. 30 minutes after surgery. Z-LEHD-FMK was injected at a dose of […] body weight at a final volume of 200 μl. Z-IETD-FMK was injected at a dose of 0.8 mg kg^−1 body weight at a final volume of 100 μl. The control groups were administered vehicle injections at the same volume, route, and timing as experimental animals.
To detect the active forms of caspase-1 in blood, spleen, and bone marrow samples, cell suspensions were stained with the fluorescent inhibitor probe FAM-YVAD-FMK (FAM FLICA, BioRad, Germany) for 30 minutes at 37° C. according to the manufacturer's instructions. After washing, the cells were stained for CD45^+CD3^+ T cells and CD45^+Cd11b^+ monocytes. The flow cytometry data was acquired on a BD FACSVerse (for representative gating strategy, see FIG. 10B).

Assay [4] relates to cf-dsDNA. Put plainly: Cell-free dsDNA quantification in serum/plasma after stroke. In kind it is in vivo, mice. To be noted: hrDNase 1000 U vs vehicle, 6 h after stroke or sham surgery.
Text: as §2
Cell-free nucleic acids (RNA, single strand (ss) DNA and double strand (ds) DNA) levels in the plasma of mice and human patients was assessed with a Qubit 2.0 fluorometer (Invitrogen) using specific fluorescent dyes which bind either ssDNA (ssDNA Assay Kit, Thermo Fisher Scientific) or dsDNA (HS dsDNA Assay kit, Thermo Fisher Scientific). […]

Assay [5] has as its system FasL on CD11b^+ monocytes. As to the kind of experiment: FasL expression on splenic CD11b+ monocytes by FACS after stroke. In kind it is in vivo, mice. The following applies: hrDNase 1000 U after stroke vs control.
Text: as §2, §3

The subject of assay [6] is FasL on BMDMs. As to the kind of experiment: BMDMs stimulated with post-stroke serum (±hrDNase), FasL expression by FACS. The assay is classed as cell-based, mice. The following applies: BMDMs stimulated 10 minutes with post-stroke serum ±hrDNase; FasL 10 and 60 minutes after. From the text:
Control-treated BMDMs received only FBS-containing culture media. […] Stimulation by secreted factors (left), and 2. Cell-cell contact (right).

Assay [7] deals with IL-1β. Put plainly: IL-1β concentration in post-stroke serum treated ex vivo ±hrDNase. The following applies: ex vivo treatment of post-stroke mouse serum ±hrDNase. On the set-up: species or system mice. How it is done:
Total IL-1β and caspase-1 levels from patient plasma samples (diluted 1:10 in sterile PBS) were obtained using commercial assay kits according to the manufacturers instructions (Quantikine ELISA human IL-1β, Quantikine ELISA human caspase-1 R&D systems). Total IL-1β and IL-18 levels from murine plasma samples were measured using the Duoset ELISA IL-1β and the Duoset ELISA IL-18 kit according to the manufacturer's instructions (R&D systems).

B1: hrDNase: Human recombinant DNase (Roche, Switzerland), DNA-degrading enzyme (protein, UniProt P24855 23-282, looked up)
Deoxyribonuclease-1: LKIAAFNIQTFGETKMSNATLVSYIVQILSRYDIALVQEVRDSHLTAVGKLLDNLNQDAPDTYHYVVSEPLGRNSYKERYLFVYRPDQVSAVDSYYYDDGCEPCGNDTFNREPAIVRFFSRFTEVREFAIVPLHAAPGDAVAEIDALYDVYLDVQEKWGLEDVMLMGDFNAGCSYVRPSQWSSIRLWTSPTFQWLIPDSADTTATPTHCAYDRIVVAGMLLRGAVVPDSALPFNFQAAYGLSDQLAQAISDHYPVEVMLK
As for B1, the “splenic T cell counts / T cell survival” value in assay [1] was “improved T cell survival after experimental stroke; also recorded: increased splenic T cell counts”. The “splenic B cell survival” value in assay [2] is listed as “improved B cell survival after experimental stroke”. The “monocyte inflammasome activation (caspase-1 probe FAM-FLICA)” value in assay [3] was “substantially reduced inflammasome activation in splenic monocytes; also recorded: decrease cf-dsDNA concentration in plasma and inflammasome activation in monocytes; also recorded: significantly reduced monocyte inflammasome activation”. The “serum dsDNA (cf-dsDNA) concentration” value in assay [4] is given as “reduction of cf-dsDNA blood concentrations; also recorded: decrease cf-dsDNA concentration in plasma; also recorded: decrease of serum dsDNA concentration in mice receiving hrDNase treatment after stroke to levels of sham-operated mice”; in assay [4] (listed as human recombinant DNAse), “efficient degradation of cf-dsDNA”. For the same molecule, the “FasL expression on monocytes / FasL+ myeloid cell population” value in assay [5] is “prevented the expansion of FasL+myeloid cell population; also recorded: reduced FasL expression on monocytes”. In addition, the “FasL upregulation on serum-stimulated monocytes (BMDMs)” value in assay [6] is on record as “completely prevented the FasL upregulation on serum-stimulated monocytes”. The “IL-1β concentration of post-stroke serum” value in assay [7] is given as “IL-1β concentrations did not differ between the two stroke serum groups”; in assay [7] (listed as hrDNAse), “did not affect the serum concentration of IL-1β”.
